Reference: patent CN117567617A

Molecular target: CLDN18.2 (species not stated)
Assay: affinity measurement, method not described

## IMAB362 (Zolbetuximab), positive control antibody
  Kd: 4.17 nM
